Assay results reported in publication PMC9601230 (mBio, 2022).

Assays:
[1] = target: the molecule itself; assay: SEC; analytical Superdex 75 10/300GL, 0.3 mL/min, 20 mM Tris pH 8.0, 200 mM NaCl, 0.5 mM TCEP; 100 uL of protein at 2 mg/mL loaded; calibrated with protein standards
[2] = target: T1, DrRuvC (Deinococcus radiodurans, UniProt Q9RX75 1-179); assay: EMSA; EMSA: 100 nM 6-FAM substrate, 50 mM Tris-HCl pH 8.0, 125 mM NaCl, 10 ug/mL BSA, 1 mM TCEP, 5% glycerol, 30 C 10 min; 5% native PAGE in 0.5x Tris-borate; conditions: protein: recombinant, tags: N-terminal His-MBP-TEV, removed by TEV, chain copies: 2, label: 5'-6-FAM on J31-1
T1 sequence: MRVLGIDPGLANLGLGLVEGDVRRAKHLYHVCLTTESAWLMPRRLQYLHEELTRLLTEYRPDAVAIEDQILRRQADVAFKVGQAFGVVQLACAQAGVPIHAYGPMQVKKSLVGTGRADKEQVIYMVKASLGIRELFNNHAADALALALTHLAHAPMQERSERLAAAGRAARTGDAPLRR

[3] = target: T1, DrRuvC; assay: EMSA; no obvious specific complex band; EMSA: 100 nM 6-FAM substrate, 50 mM Tris-HCl pH 8.0, 125 mM NaCl, 10 ug/mL BSA, 1 mM TCEP, 5% glycerol, 30 C 10 min; 5% native PAGE in 0.5x Tris-borate; conditions: protein: recombinant; tags: N-terminal His-MBP-TEV, removed by TEV; chain copies: 2; label: 5'-6-FAM on J31-1; blunt, nick between J31-5 and J31-7

B1: RuvC from Deinococcus radiodurans (enzyme, UniProt Q9RX75 1-179, looked up)
chain: T1 sequence
notes: Holliday junction resolvase RuvC, Deinococcus radiodurans, full-length gene, residues 1 to 179, amplified from genomic DNA; Expressed from pET28-HMT (His-MBP-TEV); tag removed with TEV protease, so residues of the TEV site may be left at the N-terminus; also called DrRuvC; dr0440; source: E. coli Rossetta (DE3), purified (HisTrap, TEV cleavage, HisTrap, Heparin, Superdex 75); not shown: His6, …
stoichiometry N [1]: 2

B2: mobile HJ (HJ31) (structured_DNA)
DNA 1: GCTAGCCACAGCCATTCGTACGATTGCGGGA
DNA 2: TCCCGCAATCGTACGAAACCGAGCACGATCT
DNA 3: AGATCGTGCTCGGTTTCGTACCAGATGCCAT
DNA 4: ATGGCATCTGGTACGAATGGCTGTGGCTAGC
Kd ([2]; four-way junction with mobile homologous core, 4 strands): ~0.15 µM

B3: nicked HJ (structured_DNA)
DNA 1: B2 DNA 1
DNA 2: TCCCGCAATCGTCCGTTTCCGAGCACGATCT
DNA 3: AGATCGTGCTCGGAAA
DNA 4: GCCTGCAGATGCCAT
DNA 5: ATGGCATCTGCAGGCAATGGCTGTGGCTAGC
Kd ([2]; 3'-OH and 5'-OH at nick, four-way junction, nick in strand opposite J31-1, 5 strands): ~0.15 µM

B4: replication fork (structured_DNA)
DNA 1: B2 DNA 1
DNA 2: B3 DNA 2
DNA 3: AGATCGTGCTCGGAAA
DNA 4: AATGGCTGTGGCTAGC
Kd ([2]; three-way junction with nick at junction, 4 strands): ~0.41 µM

B5: Y-junction (structured_DNA)
DNA 1: B2 DNA 1
DNA 2: B3 DNA 2
DNA 3: AGATCGTGCTCGGAAAAATGGCTGTGGCTAGC
Kd ([2]; three-way junction, 3 strands): ~0.425 µM

B6: nicked duplex (dsDNA)
DNA 1: B2 DNA 1
DNA 2: TCCCGCAATCGTACG
DNA 3: AATGGCTGTGGCTAGC
Kd [3]: ~0.408 µM

B7: immobile HJ (structured_DNA)
DNA 1: B2 DNA 1
DNA 2: B3 DNA 2
DNA 3: AGATCGTGCTCGGAAAGCCTGCAGATGCCAT
DNA 4: B3 DNA 5
Kd ([2]; four-way junction, 4 strands): ~0.15 µM
